B1: B. subtilis Smc (enzyme, Bacillus subtilis, UniProt P51834 1-1186, looked up)
chain: MFLKRLDVIGFKSFAERISVDFVKGVTAVVGPNGSGKSNITDAIRWVLGEQSARSLRGGKMEDIIFAGSDSRKRLNLAEVTLTLDNDDHFLPIDFHEVSVTRRVYRSGESEFLINNQPCRLKDIIDLFMDSGLGKEAFSIISQGKVEEILSSKAEDRRSIFEEAAGVLKYKTRKKKAENKLFETQDNLNRVEDILHELEGQVEPLKIQASIAKDYLEKKKELEHVEIALTAYDIEELHGKWSTLKEKVQMAKEEELAESSAISAKEAKIEDTRDKIQALDESVDELQQVLLVTSEELEKLEGRKEVLKERKKNAVQNQEQLEEAIVQFQQKETVLKEELSKQEAVFETLQAEVKQLRAQVKEKQQALSLHNENVEEKIEQLKSDYFELLNSQASIRNELQLLDDQMSQSAVTLQRLADNNEKHLQERHDISARKAACETEFARIEQEIHSQVGAYRDMQTKYEQKKRQYEKNESALYQAYQYVQQARSKKDMLETMQGDFSGFYQGVKEVLKAKERLGGIRGAVLELISTEQKYETAIEIALGASAQHVVTDDEQSARKAIQYLKQNSFGRATFLPLSVIRDRQLQSRDAETAARHSSFLGVASELVTFDPAYRSVIQNLLGTVLITEDLKGANELAKLLGHRYRIVTLEGDVVNPGGSMTGGAVKKKNNSLLGRSRELEDVTKRLAEMEEKTALLEQEVKTLKHSIQDMEKKLADLRETGEGLRLKQQDVKGQLYELQVAEKNINTHLELYDQEKSALSESDEERKVRKRKLEEELSAVSEKMKQLEEDIDRLTKQKQTQSSTKESLSNELTELKIAAAKKEQACKGEEDNLARLKKELTETELALKEAKEDLSFLTSEMSSSTSGEEKLEEAAKHKLNDKTKTIELIALRRDQRIKLQHGLDTYERELKEMKRLYKQKTTLLKDEEVKLGRMEVELDNLLQYLREEYSLSFEGAKEKYQLETDPEEARKRVKLIKLAIEELGTVNLGSIDEFERVNERYKFLSEQKEDLTEAKNTLFQVIEEMDEEMTKRFNDTFVQIRSHFDQVFRSLFGGGRAELRLTDPNDLLHSGVEIIAQPPGKKLQNLNLLSGGERALTAIALLFSILKVRPVPFCVLDEVEAALDEANVFRFAQYLKKYSSDTQFIVITHRKGTMEEADVLYGVTMQESGVSKVISVKLEETKEFVQ
notes: Smc (ATPase of the Smc-ScpAB complex), Bacillus subtilis; gene cloned into pET21a; expected mass printed as 135.5 kDa; source: E. coli Rosetta (DE3), purified (HiTrap Q flow-through, Ni-NTA)
B2: B. subtilis ScpA (natural protein, Bacillus subtilis, UniProt P35154 1-251, looked up)
chain: MEEYQVKIDTFEGPLDLLLHLINRLEIDIYDIPVAKITEQYLLYVHTMRVLELDIASEYLVMAATLLSIKSRMLLPKQEEELFEDELLEEEDPREELIEKLIEYRKYKDAAKDLKEREEERQKSFTKPPSDLSEYAKEVKQSEQKLSVTVYDMIGAFQKVLKRKKINRPMETTITRQDIPIEARMNEIVHSLKSRGTRINFMDLFPYEQKEHLVVTFLAVLELMKNQLVLIEQEHNFSDIYITGSESIHGA
notes: ScpA (kleisin of the Smc-ScpAB complex), Bacillus subtilis; gene cloned into pET21a; expected mass printed as 31 kDa; source: E. coli Rosetta (DE3), purified (Ni-NTA, MonoQ)

What was measured:
Assay in all cases: cross-linking; purified proteins in various combinations incubated with or without 0.4% formaldehyde in Hepes 50 mM pH 7.5, NaCl 100 mM, DTT 0.1 mM, 20% glycerol; denatured at 65°C with SDS and BME; SDS-PAGE; bands identified by mass spectrometry (peptide fingerprinting)
[1] = molecular target: the molecule itself
B. subtilis ScpA = molecular target: B2; conditions: both partners purified
B. subtilis Smc = molecular target: B1; conditions: both partners purified

Binder | stoichiometry N [1] | binding result (B. subtilis ScpA) | binding result (B. subtilis Smc)
B1 | 2 |  | 
B. subtilis ScpB (natural protein, Bacillus subtilis, UniProt P35155 1-197, looked up, ScpB (KITE protein of the Smc-ScpAB complex), Bacillus subtilis; gene cloned into pET21a; expected mass printed as 23.2 kDa; source: E. coli Rosetta (DE3), purified (Ni-NTA, MonoQ)) MGLDIVNWKAIVEALLYAAGDEGLTKKQLLTVLEIEEPELNTIMADVADEYRGDTRGIELIEYADTYMLSTKKDFAPYLKKLIEVPSKGLSQASLEVLAIVSYKQPITRAEIEEIRGVKSERILHSLVAKALLCEVGRADGPGRAILYGTTPTFLEQFGLKTLDELPPLPENAEEDVLQEEADLFFENFNQTFEDIK | 2 | binds | 
B2 |  |  | binds

Reference: publication doi:10.1101/2025.05.11.653314, “Ureaplasma parvum SMC-ScpAB complex is capable of loop extrusion and demonstrates properties that distinguish it from Bacillus subtilis homologue” (bioRxiv, 2025)
